Substrate in this data set: N[C@@H](CC(=O)O)C(=O)O
The experiment in a line: Kinetics of recombinant his-tagged, refolded maize asparagine synthetase AsnS4 (substrate titration, asparagine by HPLC). To be noted: other: Zm AsnS4, 100 mM Hepes, pH 8.0, 10 mM MgCl2. Format: biochemical, Zea mays.

Procedure: To assay asparagine synthetase activity, desalted protein extracts (10-50 μL) were added to wells containing 100 μL assay solution (100 mM Hepes, pH 8.0, 10 mM MgCl2, 2 mM aspartate, 5 mM DTT, 10 mM ATP, 1 mM amino(oxy)acetic acid (aspartate amino transferase inhibitor), 1 mM aspartic semialdehyde (asparaginase inhibitor). To start the reaction, glutamine (final concentration of 2 mM for standard assay) was added to the solution, which was then mixed. The assay mixture was then incubated for 1 to 2 hours. The reaction was then stopped by the addition of an equal volume of 20% (w/v) trichloroacetic acid. The mixture was then filtered to remove precipitate and asparagine was measured by HPLC. Sample size was increased from 0.5 μL to 2.5 μL for HPLC, excitation wavelength was reduced from 340 nm to 235 nm, and fluorimeter gain was increased from 10 to 13.
This example describes the cloning of the nucleotide sequence for AsnS1 (SEQ ID NO: 1), AsnS2 (SEQ ID NO: 3), AsnS3 (SEQ ID NO: 5) and AsnS4 (SEQ ID NO: 50) into E. coli expression vectors, as well as the expression, purification and kinetics of the recombinant forms of the four AsnS isoforms.
These vectors are expected to produce recombinant proteins with C-terminal histidine tags.
The E. coli expression vectors described in the previous paragraph were used to transform Rosetta DE5™ E. coli cells (Novagen). […]

B1: Zea mays asparagine synthetase Zm AsnS4 (SEQ ID NO: 51, encoded by SEQ ID NO: 50) (Zea mays) (protein)
chain: MCGILAVLGCSDCSQARRARILACSRRLKHRGPDWSGLYQHEGNFLAQQRLAIVSPLSGDQPLFNEDRTVVVVANGEIYNHKNVRKQFTGAHSFSTGSDCEVIIPLYEKYGENFVDMLDGVFAFVLYDTRDRTYVAARDAIGVNPLYIGWGSDGSVWMSSEMKALNEDCVRFEIFPPGHLYSSAGGGFRRWYTPHWFQEQVPRTPYQSLVLREAFEKAVIKRLMTDVPFGVLLSGGLDSSLVASVTKRHLVETDAAEKFGTELHSFVVGLEGSPDLKAAREVADYLGTTHHEFHFTVQDGIDAIEEVIYHDETYDVTTIRASTPMFLMARKIKSLGVKMVLSGEGSDELLGGYLYFHFAPNREELHRETCRKVKALHQYDCLRANKATSAWGLEVRVPFLDKEFVDVAMGMDPEWKMYDKNLGRIEKWVLRKAFDDEEHPYLPEHILYRQKEQFSDGVGYNWIDGLKSFTEQQVTDEMMNSAAQMFPYNTPVNKEAYYYRMIFERLFPQDSARETVPWGPSIACSTPAAIEWVEQWKASNDPSGRFISSHDSAATDRTGDKLAVANGGGHGAANGTVNGNDVAVAIAV
notes: 588 aa
One may read the Km as the concentration of substrate that gives half-maximal velocity. Turning to B1, the Km was determined as 930 µM.

Values taken from patent US8357833B2, “Corn plants and seed enhanced for asparagine and protein” (priority 2007, dated 2013).
